Experiments:
Parkin = Parkin (UniProt O60260); experiment: Strep-Tactin pull-down, anti-Parkin blot; conditions: reference: unmodified Strep-NEDD8; sites S65
HDAC6 = HDAC6 (UniProt Q9UBN7); experiment: Strep bait enrichment from lysate, Western blot; conditions: reference: unmodified Strep-NEDD8; sites S65

binding against the reference (Parkin): stronger | binding against the reference (HDAC6): stronger
Substance: NEDD8 1-76 (from UniProt Q15843) Strep-pNEDD8 (pS65)

From article PMC9020517
